Assay results as given in patent publication US20020127657A1.

Target: GST-fusion of the truncated CD2 tail (CD2221-282) (human) (UniProt P06729)
Assay: NMR titration, estimate from line broadening in fast exchange

Chain of GST-fusion of the truncated CD2 tail (CD2221-282) (human) (P06729 245-306): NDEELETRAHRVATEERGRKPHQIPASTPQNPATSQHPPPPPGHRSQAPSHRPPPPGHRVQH

## purified binding domain of CD2BP2 comprising amino acids 256-341 (His-tagged, NMR sample)
  koff: > 1000 s⁻¹
